Experimental findings from article PMC12556795 are described below.

In general, Kd refers to the concentration at which binding is half-saturated. High values mean a looser complex, low ones a tighter complex.

Assay [1] concerns the target DCC C-tail ΔP3 protein (residues 1121-1424) (H. sapiens) (UniProt P43146). The experiment in a line: other fluorescence titration; initial fluorescence read on the MST instrument; Cy5-labelled ΔP3 at 5 nM, 60S subunits titrated from 5 uM to 0.15 nM; 20 mM Tris-HCl pH 7.5, 100 mM KCl, 2 mM Mg(OAc)2, 1 mM DTT, 0.5 mM EDTA, 0.25 M sucrose; 25 °C; 1:1 binding model; KD values called relative.

Assay [2] deals with DCC C-tail N29+P1 protein (residues 1121-1167) (H. sapiens) (UniProt P43146). The experiment in a line: MST; Cy5-labelled DCC protein (target) at 5 nM, purified 60S subunits (ligand) titrated from 5 uM to 0.15 nM over 16 capillaries; 20 mM Tris-HCl pH 7.5, 100 mM KCl, 2 mM Mg(OAc)2, 1 mM DTT, 0.5 mM EDTA, 0.25 M sucrose; 25 °C; 1:1 binding model; KD values called relative, not absolute (limited by 60S solubility).
DCC C-tail N29+P1 protein (residues 1121-1167) (H. sapiens), sequence (P43146 1121-1167): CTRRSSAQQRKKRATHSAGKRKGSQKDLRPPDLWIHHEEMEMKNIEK

The target in assay [3] is DCC C-tail ΔN29+P1 protein (residues 1168-1447) (H. sapiens) (UniProt P43146). The description is as above.
DCC C-tail ΔN29+P1 protein (residues 1168-1447) (H. sapiens), sequence (P43146 1168-1447, stated change not applied): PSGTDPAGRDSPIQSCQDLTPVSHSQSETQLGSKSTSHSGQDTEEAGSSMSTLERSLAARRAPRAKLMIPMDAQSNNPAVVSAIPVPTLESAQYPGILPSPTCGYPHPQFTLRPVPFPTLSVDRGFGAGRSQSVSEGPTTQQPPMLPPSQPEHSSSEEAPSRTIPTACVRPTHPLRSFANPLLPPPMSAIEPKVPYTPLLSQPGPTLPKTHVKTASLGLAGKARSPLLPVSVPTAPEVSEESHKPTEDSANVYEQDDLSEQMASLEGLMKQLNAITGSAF
Assay [4] deals with 60S ribosomal subunit (rabbit) (rabbit (endogenous in reticulocyte lysate)) (UniProt P19949).
Assay [5] shares this target. The source holds these as a separate data set.

DCC C-tail N29+P1 protein (residues 1121-1167), sequence (P43146 1121-1167): as the sequence (P43146 1121-1167) above
DCC C-tail ΔP3 protein (residues 1121-1424), sequence (P43146 1121-1424, stated change not applied): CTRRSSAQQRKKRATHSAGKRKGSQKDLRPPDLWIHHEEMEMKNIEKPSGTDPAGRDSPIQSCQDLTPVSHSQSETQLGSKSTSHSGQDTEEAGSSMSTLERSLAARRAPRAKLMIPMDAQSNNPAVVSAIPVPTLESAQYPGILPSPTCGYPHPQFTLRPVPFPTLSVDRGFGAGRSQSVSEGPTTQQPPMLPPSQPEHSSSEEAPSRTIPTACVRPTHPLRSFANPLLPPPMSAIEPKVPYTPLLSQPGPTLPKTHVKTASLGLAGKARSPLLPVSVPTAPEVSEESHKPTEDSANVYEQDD
DCC C-tail ΔP3 protein (residues 1121-1424) (H. sapiens), sequence (P43146 1121-1424, stated change not applied): as above

As to “60S ribosomal subunit (rabbit) (from UniProt P19949 1-297) (complex)”, the Kd was 68.4 nM in assay [1], 80.1 nM in assay [2] and 285 nM in assay [3]. “DCC C-tail N29+P1 KRK→AAA protein (residues 1121-1167, alanines at 1140 to 1142) (from UniProt P43146 1121-1167) (domain or fragment)” came in with a decrease of in vitro translation of a luciferase reporter mRNA in rabbit reticulocyte lysate by the DCC protein (3 and 6 μM) (% decrease of translation) in assay [4] of 20.

In the case of “DCC C-tail N29+P1 protein (residues 1121-1167) (from UniProt P43146 1121-1167) (domain or fragment)”, the decrease of in vitro translation of a luciferase reporter mRNA in rabbit reticulocyte lysate by the DCC protein (3 and 6 μM) (% decrease of translation) in assay [4] was 90.

Substance “DCC C-tail ΔP3 protein (residues 1121-1424) (from UniProt P43146 1121-1424) (domain or fragment)” yielded an inhibition of in vitro translation of a luciferase reporter mRNA in rabbit reticulocyte lysate by 3 μM DCC protein (% inhibition of translation) in assay [5] of 92.
